The text below walks through data of US20030211540.

The test system of the data set is T1, PKC inhibitor peptide 19-31 (Arg-Phe-Ala-Arg-Lys-Gly-Ala-Leu-Arg-Gin-Lys-Asn-Val).
T1 sequence: RFARKGALRQKNV

Consider Protein kinase C, for which the “insulin-stimulated DNA synthesis (BrDU incorporation) under high glucose after microinjection of the peptide” value is recorded as “partially reversed inhibition of DNA synthesis”.
